From US20120028913A1 (BIOKINE THERAPEUTICS, published 2012)
Values belong to the binder of their own block, whether it stands above or below them. Bridges are numbered along the chain shown (N, C = ends). Where no end group is shown, it is not given here. The star is where a group is joined. Biotin = O=C1N[C@H]2[C@H](CS[C@H]2CCCCC(=O)*)N1

Tests used:
Human SDF-1α [1] = target: T1, Human SDF-1α (human, UniProt P48061-2 22-89); assay: Bound chemokines (at least); screen vs control proteins
T1 construct: bought recombinant chemokine; also called SDF-1 alpha

Human MCP-1 (MCAF) [2] = target: T2, Human MCP-1 (MCAF) (human, UniProt P13500 24-99); assay: as above
T2 construct: bought recombinant chemokine

[3] = target: T3, human IL-8, (72 amino acids) (human, UniProt P10145 28-99); assay: as above
T3 sequence (looked up): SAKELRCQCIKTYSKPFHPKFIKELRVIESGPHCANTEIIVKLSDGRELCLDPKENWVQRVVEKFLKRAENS

Human MCP-1 (MCAF) [4] = target: T2, Human MCP-1 (MCAF); assay: as above; remark: listed apart in the source
[5] = target: T3, human IL-8, (72 amino acids); assay: cell-based or functional assay
human MIG [6] = target: T4, human MIG (human, UniProt Q07325 23-125); assay: cell-based or functional assay
T4 sequence (looked up): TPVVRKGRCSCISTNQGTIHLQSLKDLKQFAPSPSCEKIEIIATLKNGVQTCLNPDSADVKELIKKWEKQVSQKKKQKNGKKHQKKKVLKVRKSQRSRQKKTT

human Eotaxin [7] = target: T5, human Eotaxin (human, UniProt P51671 24-97); assay: Bound chemokines (at least); screen vs control proteins
T5 construct: bought recombinant chemokine

human Eotaxin [8] = target: T5, human Eotaxin; assay: cell-based or functional assay
Human SDF-1α [9] = target: T1, Human SDF-1α; assay: ELISA on chemokine-coated plates, fold over control proteins (FIG. 3)
Description: (§1) NUNC-Immuno maxisorp plates (Cat. No. 4-42404) were coated with the appropriate chemokine (0.1 ml/well, 0.1-1.0 μg/ml in 0.1 M NaHCO₃, pH 8.6), overnight at 4° C. The plates were then blocked with 0.2 ml/well of blocking buffer (5 mg/ml BSA in 0.1 NaHCO₃). Control wells were treated with blocking buffer alone, with no addition of target protein (chemokine). The plates were washed 6 times with PBST (0.1% Tween 20 in PBS), followed by incubation for 45 minutes at room temperature with 10-fold serial dilutions of individual synthetic peptides (10 pg-10 μg) with 1% BSA (PBST-BSA)/well. After the plates were washed 6 times with PBST, the bound peptides were probed by HRP-SA Conjugate, diluted 1:10,000 to 1:20,000 in PBST-BSA, 0.1 ml/well for 45 minutes at room temperature. The target-bound synthetic peptides probed with HRP-SA were quantified by DAKO TMB one-step substrate system, followed by the addition of stop solution, HCl—H₂SO₄ mixture (0.1 ml/well) ON HCl, 3N H₂SO₄). The results were analyzed by ELISA reader at OD₄₅₀.
(§2) As discussed above, the level of binding was calculated by comparing binding of the peptides to the chemokines with peptide binding to controls. Level of control binding was defined as level 1 (up to a one-fold increase in binding). This control binding level is illustrated in the Figure as a dashed line.

[10] = target: T3, human IL-8, (72 amino acids); assay: as above
Description: as §1, §2

human MIG [11] = target: T4, human MIG; assay: as above
Description: as §1, §2

Human MCP-1 (MCAF) [12] = target: T2, Human MCP-1 (MCAF); assay: as above
Description: as §1, §2

human Eotaxin [13] = target: T5, human Eotaxin; assay: as above
Description: as §1, §2

human MIG [14] = target: T4, human MIG; assay: Bound chemokines (at least); screen vs control proteins
[15] = target: T3, human IL-8, (72 amino acids); assay: as above; remark: listed apart in the source
human Eotaxin [16] = target: T5, human Eotaxin; assay: peptide-containing carriers, binding vs control proteins (FIG. 1)

T2 sequence (P13500 24-99 limits assumed): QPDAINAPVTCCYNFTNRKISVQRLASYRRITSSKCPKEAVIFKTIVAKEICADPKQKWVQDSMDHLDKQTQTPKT
T1 sequence (P48061 22-89 limits assumed): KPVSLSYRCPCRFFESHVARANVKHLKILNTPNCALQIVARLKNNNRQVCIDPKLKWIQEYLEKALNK

- binding result (Human SDF-1α [9]): no binding
- binding result [10]: no binding
- binding result (human MIG [11]): no binding
- binding result (Human MCP-1 (MCAF) [12]): no binding
- binding result (human Eotaxin [13]): no binding
B11: BKT-P18 (peptide)
peptide: ACKESATYFCGGGSK(Biotin)G
modifications: disulfide 2-10 (inferred)
notes: general synthetic cyclic format applied; also called control peptide

- binding result (Human MCP-1 (MCAF) [2]): binds
B15: BKT-P26 (peptide)
peptide: VHTSLLQKHPLP

- binding result (human MIG [14]): binds
B16: BKT-P50 (peptide)
peptide: CAHLSPHKC
modifications: not fully specified (bridges); cysteine pairing not given here

- binding result [15]: binds
B17: BKT-P40 (peptide)
peptide: SAISDHRAHRSH

- binding result (Human MCP-1 (MCAF) [2]): binds
B18: BKT-P51 (peptide)
peptide: ESDLTHALHWLG

- binding result (Human MCP-1 (MCAF) [4]): binds
B19: BKT-P27 (peptide)
peptide: GDFNSGHHTTTR

- binding result (Human MCP-1 (MCAF) [4]): binds
B20: BKT-P47 (peptide)
peptide: TRLVPSRYYHHP

- binding result (human Eotaxin [16]): binds
B21: BKT-P22/38 (peptide)
peptide: LGFDPTSTRFYT
notes: the carrier is not described; also called BKT-P38

- binding result (Human MCP-1 (MCAF) [2]): binds
B22: BKT-P53 (peptide)
peptide: YATQHNWRLKHE

Second part, the binder before the results:

B1: BKT-P56 (peptide)
peptide: CHHNLSWEC
modifications: not fully specified (bridges); cysteine pairing not given here
- binding result (Human SDF-1α [1]): binds

B2: BKT-P44 (peptide)
peptide: AHSLKSITNHGL
- binding result (Human MCP-1 (MCAF) [2]): binds

B3: BKT-P49 (peptide)
peptide: HSACHASLKHRC
modifications: not fully specified (bridges); cysteine pairing not given here
- binding result (Human MCP-1 (MCAF) [2]): binds

B4: BKT-P37 (peptide)
peptide: LLADTTHHRPWP
notes: the carrier is not described
- binding result [3]: binds

B5: BKT-P55 (peptide)
peptide: HHTWDTRIWQAF
- binding result (Human MCP-1 (MCAF) [4]): binds

B6: BKT-P45 (peptide)
peptide: HHFHLPKLRPPVGGGSK(Biotin)G
- Level of Antagonistic Effect (T cell arrest under laminar flow on VCAM-1 plus chemokine) [5]: 100%
- Level of Antagonistic Effect (T cell arrest under laminar flow on VCAM-1 plus chemokine) (human MIG [6]): 20%

B7: BKT-P48 (peptide)
peptide: ACHASLKHRC
modifications: not fully specified (bridges); cysteine pairing not given here
- binding result (Human MCP-1 (MCAF) [2]): binds

B8: BKT-P34 (peptide)
peptide: SVQTRPLFHSHF
- binding result (human Eotaxin [7]): binds

B9: BKT-P52 (peptide)
peptide: WSAHIVPYSHKP
- binding result (Human MCP-1 (MCAF) [2]): binds

B10: BKT-P39 (peptide)
peptide: SAGHIHEAHRPLGGGSK(Biotin)G
- Level of Antagonistic Effect (T cell arrest under laminar flow on VCAM-1 plus chemokine) (human Eotaxin [8]): 100%

B12: BKT-P2 (peptide)
peptide: SIPSHSIHSAKAGGGSK(Biotin)G
- Level of Antagonistic Effect (T cell arrest under laminar flow on VCAM-1 plus chemokine) (human MIG [6]): 50%

B13: BKT-P46 (peptide)
peptide: LDYPIPQTVLHH
- binding result (Human MCP-1 (MCAF) [4]): binds

B14: BKT-P33 (peptide)
peptide: GVHKHFYSRWLG
- binding result (human Eotaxin [7]): binds
